Data from paper PMC3001067 (Nucleic Acids Research, 2010).

How the values were obtained:
[1] = target: Thermus aquaticus RNAP β-subunit β1 domain (Taq β 17–139 –Gly–Gly– 334–395) (Thermus aquaticus) (UniProt Q9KWU7); assay: crystal structure
[2] = target: Tth RNAP-β1 Q99R (Tth RNAP β-subunit residues 10–133), two-hybrid fusion (Thermus thermophilus) (UniProt Q8RQE9); assay: two-hybrid
[3] = target: Eco RNAP β-subunit residues 19–142 (Eco RNAP-β1), two-hybrid fusion (Escherichia coli) (UniProt P0A8V2); assay: two-hybrid
[4] = target: Tth RNAP β-subunit residues 10–133 (Tth RNAP-β1), two-hybrid fusion (Thermus thermophilus) (UniProt Q8RQE9); assay: two-hybrid
[5] = target: T1, Tth RNAP-β1 Q99R (Tth RNAP β-subunit residues 10–133), two-hybrid fusion (Thermus thermophilus, UniProt Q8RQE9 10-133, Q99R); assay: two-hybrid
T1 sequence (looked up): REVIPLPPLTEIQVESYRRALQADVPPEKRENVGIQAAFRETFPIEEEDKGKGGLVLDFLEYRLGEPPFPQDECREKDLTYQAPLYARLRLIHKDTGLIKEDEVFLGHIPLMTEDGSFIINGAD

[6] = target: Eco RNAP β-subunit residues 19–142 (Eco RNAP-β1), two-hybrid fusion (Escherichia coli, UniProt P0A8V2 19-142); assay: two-hybrid

Molecule “Thermus thermophilus HB27 TRCF RNAP interacting domain (Tth TRCF–RID, residues 321–387) (domain or fragment)” has a stoichiometry N [1] of 1.

“Tth TRCF residues 314–444 (Tth TRCF–RID), two-hybrid fusion (domain or fragment)” gave a fold defect of the two-hybrid signal against wild-type Tth RNAP-β1 [2] of 2 fold.

With “Tth TRCF–RID R341L (Tth TRCF residues 314–444), two-hybrid fusion (domain or fragment)” the fold change of the two-hybrid signal against wild-type Tth TRCF–RID [3] was 2 fold and the fold defect of the two-hybrid signal against wild-type Tth TRCF–RID [4] was 2 fold.

B1: Eco TRCF residues 472–603 (Eco TRCF–RID), two-hybrid fusion (domain or fragment, Escherichia coli, UniProt P30958 472-603, looked up)
chain: RNLAELHIGQPVVHLEHGVGRYAGMTTLEAGGITGEYLMLTYANDAKLYVPVSSLHLISRYAGGAEENAPLHKLGGDAWSRARQKAAEKVRDVAAELLDIYAQRAAKEGFAFKHDREQYQLFCDSFPFETTP
B1 was tested, and the “fold change of the two-hybrid signal against wild-type Tth RNAP-β1” value [5] was ~2 fold.

B2: Eco TRCF–RID L499R (Eco TRCF residues 472–603), two-hybrid fusion (domain or fragment, Escherichia coli, UniProt P30958 472-603, looked up)
chain: RNLAELHIGQPVVHLEHGVGRYAGMTTREAGGITGEYLMLTYANDAKLYVPVSSLHLISRYAGGAEENAPLHKLGGDAWSRARQKAAEKVRDVAAELLDIYAQRAAKEGFAFKHDREQYQLFCDSFPFETTP
In the case of B2, the “fold defect of the two-hybrid signal against wild-type Eco TRCF–RID” value [6] is reported as ~10 fold.
